Publication PMC3675495

Biological target: Su(Hw) (Drosophila (endogenous in embryo nuclear extract)) (UniProt P08970)
Test: co-IP

Chain of UniProt P08970 (P08970 whole entry): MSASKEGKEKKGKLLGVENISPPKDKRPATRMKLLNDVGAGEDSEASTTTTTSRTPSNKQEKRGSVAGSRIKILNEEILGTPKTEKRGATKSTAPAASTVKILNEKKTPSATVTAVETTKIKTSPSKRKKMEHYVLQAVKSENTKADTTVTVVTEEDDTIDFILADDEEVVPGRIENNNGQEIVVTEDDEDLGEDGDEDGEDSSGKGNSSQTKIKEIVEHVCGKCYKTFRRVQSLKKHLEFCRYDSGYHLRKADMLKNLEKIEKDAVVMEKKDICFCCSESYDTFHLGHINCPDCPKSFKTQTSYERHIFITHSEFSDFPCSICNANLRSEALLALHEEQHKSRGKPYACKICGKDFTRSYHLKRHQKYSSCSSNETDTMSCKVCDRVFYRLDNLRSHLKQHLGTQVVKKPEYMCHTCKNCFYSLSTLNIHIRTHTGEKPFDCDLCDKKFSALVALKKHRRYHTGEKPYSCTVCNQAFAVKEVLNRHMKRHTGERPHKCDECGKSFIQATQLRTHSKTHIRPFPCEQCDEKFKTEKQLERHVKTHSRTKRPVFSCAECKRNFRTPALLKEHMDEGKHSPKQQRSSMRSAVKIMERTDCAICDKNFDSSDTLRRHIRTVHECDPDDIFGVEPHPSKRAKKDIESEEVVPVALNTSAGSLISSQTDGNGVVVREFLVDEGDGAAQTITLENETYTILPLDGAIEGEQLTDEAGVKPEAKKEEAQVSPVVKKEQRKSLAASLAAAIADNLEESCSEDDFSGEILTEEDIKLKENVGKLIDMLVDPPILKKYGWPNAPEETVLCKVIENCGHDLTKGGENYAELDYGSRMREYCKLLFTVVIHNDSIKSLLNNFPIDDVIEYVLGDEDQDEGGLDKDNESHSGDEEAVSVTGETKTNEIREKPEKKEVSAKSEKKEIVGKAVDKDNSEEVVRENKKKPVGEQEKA

OSA, Q8IN94 1-2716
percent co-precipitated: 0.5%
